{"source": "paper PMC11289878", "target": "B-isoform of human insulin receptor (hIR-B) (human) (UniProt P06213)", "sequence (P06213 28-1382)": "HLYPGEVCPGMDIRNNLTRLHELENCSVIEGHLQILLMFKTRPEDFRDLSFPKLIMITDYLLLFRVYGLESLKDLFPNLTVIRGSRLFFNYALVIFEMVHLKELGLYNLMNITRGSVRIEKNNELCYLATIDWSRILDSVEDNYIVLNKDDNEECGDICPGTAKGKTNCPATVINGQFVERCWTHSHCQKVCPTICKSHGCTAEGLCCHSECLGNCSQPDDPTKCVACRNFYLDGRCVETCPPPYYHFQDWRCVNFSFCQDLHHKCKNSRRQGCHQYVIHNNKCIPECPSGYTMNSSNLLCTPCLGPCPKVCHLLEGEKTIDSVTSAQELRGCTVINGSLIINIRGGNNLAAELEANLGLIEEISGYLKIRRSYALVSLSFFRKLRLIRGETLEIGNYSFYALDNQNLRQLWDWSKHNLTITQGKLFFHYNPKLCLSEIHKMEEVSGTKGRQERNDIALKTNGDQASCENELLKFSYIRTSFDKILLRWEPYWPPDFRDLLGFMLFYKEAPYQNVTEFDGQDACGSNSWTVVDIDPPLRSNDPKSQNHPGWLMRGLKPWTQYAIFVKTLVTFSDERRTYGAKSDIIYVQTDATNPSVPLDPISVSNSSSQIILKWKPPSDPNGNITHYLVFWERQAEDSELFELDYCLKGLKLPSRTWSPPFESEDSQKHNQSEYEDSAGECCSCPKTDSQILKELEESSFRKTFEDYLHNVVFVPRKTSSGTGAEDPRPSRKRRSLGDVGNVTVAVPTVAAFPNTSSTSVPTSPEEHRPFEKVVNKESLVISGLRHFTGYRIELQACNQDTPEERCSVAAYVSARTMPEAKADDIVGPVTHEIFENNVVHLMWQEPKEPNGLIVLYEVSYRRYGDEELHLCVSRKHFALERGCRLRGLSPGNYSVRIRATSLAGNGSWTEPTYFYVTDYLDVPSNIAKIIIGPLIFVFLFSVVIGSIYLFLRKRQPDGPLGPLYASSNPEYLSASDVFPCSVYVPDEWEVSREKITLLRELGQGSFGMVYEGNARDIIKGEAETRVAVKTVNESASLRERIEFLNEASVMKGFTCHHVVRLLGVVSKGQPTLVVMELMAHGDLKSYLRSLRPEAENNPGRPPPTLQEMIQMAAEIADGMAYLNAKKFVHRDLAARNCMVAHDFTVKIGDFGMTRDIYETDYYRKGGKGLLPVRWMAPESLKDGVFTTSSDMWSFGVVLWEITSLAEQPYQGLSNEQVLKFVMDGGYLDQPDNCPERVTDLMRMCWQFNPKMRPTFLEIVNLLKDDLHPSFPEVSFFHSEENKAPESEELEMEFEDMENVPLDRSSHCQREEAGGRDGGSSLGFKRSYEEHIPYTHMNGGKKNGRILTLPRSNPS", "data": [{"substance": "LY3209590 (Fc fusion)", "values": [{"measurement": "EC50 (nM) of insulin receptor Y1158 phosphorylation, HEK293 cells overexpressing hIR-B, 0% HSA", "value": 50, "unit": "nM"}, {"measurement": "EC50 (nM) of insulin receptor Y1158 phosphorylation, HEK293 cells overexpressing hIR-B, 1% HSA", "value": 83, "unit": "nM"}, {"measurement": "Rel. potency (%) to human insulin standard in the same assay, insulin receptor Y1158 phosphorylation, 0% HSA", "value": 1.4, "unit": "%"}, {"measurement": "Rel. potency (%) to human insulin standard in the same assay, insulin receptor Y1158 phosphorylation, 1% HSA", "value": 1.5, "unit": "%"}]}]}
